Test results from patent US6372467B1, “P54s6k and p85s6k genes, proteins, primers, probes, and detection methods” (President and Fellows of Harvard College, priority 1998, dated 2002).

Key:
[1] = test system: p70^S6k; experiment: In vitro kinase assay (GST-S6 substrate) of N2 anti-p70^S6k antiserum immunoprecipitates from mitogen-treated 293 cells; format: cell-based, human; settings: EGF 250 ng/ml or insulin 200 nM for 20 minutes
Protocol: (§1) 293 cells were treated with serum (10%), EGF (250 ng/ml), or insulin (200 nM) for 20 minutes, lysed, and the lysates were immunoprecipitated with 167 anti-p54^S6K antiserum or with N2 anti-p70^S6k antiserum. Phosphorimager™ counts from an in vitro kinase assay of the immunoprecipitates using GST-S6 as the substrate are shown.
(§2) Antibodies were made using standard techniques, such as those described in Harlow and Lane (Antibodies: A Laboratory Manual, Cold Spring Harbor Press, New York. 1988). The cells were starved and then stimulated with serum, EGF, or insulin, or left unstimulated. Rapamycin or wortmannin were also incubated with the cells prior to serum stimulation when indicated.
(§3) Lysates from 293 cells transfected with HA-p54^S6K or HA-p54^S6K KR were immunoblotted with anti-HA Ab. (FIG. 3B bottom left panel). […] This is of interest since a majority of the p70^S6k phosphorylation sites are conserved in p54^S6K (FIG. 1B). […] Finally, the activation kinetics of p54^S6K and p70^S6k were compared.

[2] = test system: p54^S6K; experiment: In vitro kinase assay (GST-S6 substrate) of 167 anti-p54^S6K antiserum immunoprecipitates from mitogen-treated 293 cells; format: cell-based, human; settings: EGF 250 ng/ml or insulin 200 nM for 20 minutes
Protocol: as §1, §2, §3

Substance	p70^S6k kinase activity (activation by mitogen) [1]	p54^S6K kinase activity (stimulation by mitogen) [2]
EGF	only mildly activated	to a small degree
insulin	strongly activated	stimulated
